B1: RSPH3 (parent)
chain: FIPAKTGKDVATQILEGELFDFDL

Variants of: B1
Experiment: protein stability index of a GFP-peptide fusion (GPS, HEK-293T) (PSI 1-6); higher = more stable
Conditions: c terminus: a fixed tail appended
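Further: lentivirally expressed fusions sorted by FACS into six bins by GFP to DsRed ratio, PSI derived from sequencing read proportions per bin multiplied by bin number.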

Going from FIPAKTGKTVATQILEGELFDFDL [D9T] to FIPAKTGKNVATQILEGELFDFDL [D9N], the protein stability index rises from 1.77 to 3.27.

Compared with FIPAKTGKKVATQILEGELFDFDL [D9K], FIPAKTGKSVATQILEGELFDFDL [D9S] is higher in protein stability index: 1.65 for the first, 1.82 for the second.

Going from FIPAKTGKFVATQILEGELFDFDL [D9F] to FIPAKTGKLVATQILEGELFDFDL [D9L], the protein stability index rises from 2.59 to 2.77.

Going from FIPAKTGKDVCTQILEGELFDFDL [A11C] to FIPAKTGKDVYTQILEGELFDFDL [A11Y], the protein stability index rises from 2 to 4.25.

Compared with FIPAKTGKDVKTQILEGELFDFDL [A11K], FIPAKTGKDVPTQILEGELFDFDL [A11P] is lower in protein stability index: 2.24 for the first, 1.78 for the second.

Compared with FIPAKTGKDVRTQILEGELFDFDL [A11R], FIPAKTGKDVLTQILEGELFDFDL [A11L] is lower in protein stability index: 2.2 for the first, 1.27 for the second.

First: FIPAKTGKDVSTQILEGELFDFDL [A11S]
Second: FIPAKTGKDVHTQILEGELFDFDL [A11H]
The protein stability index of the first is higher: 1.87 for the first, 1.8 for the second.

Compared with FIPAKTGKDVTTQILEGELFDFDL [A11T], FIPAKTGKDVDTQILEGELFDFDL [A11D] is higher in protein stability index: 1.91 for the first, 2.48 for the second.

Going from FIPAKTGKDVVTQILEGELFDFDL [A11V] to FIPAKTGKDVQTQILEGELFDFDL [A11Q], the protein stability index falls from 1.94 to 1.73.

Compared with FIPAKTGKDVFTQILEGELFDFDL [A11F], FIPAKTGKDVMTQILEGELFDFDL [A11M] is lower in protein stability index: 2.13 for the first, 1.53 for the second.

Compared with FIPAKTGKDVGTQILEGELFDFDL [A11G], FIPAKTGKDVNTQILEGELFDFDL [A11N] is lower in protein stability index: 2.04 for the first, 1.68 for the second.

First: FIPAKTGKDVITQILEGELFDFDL [A11I]
Second: FIPAKTGKDVETQILEGELFDFDL [A11E]
The protein stability index of the first is lower: 2 for the first, 2.35 for the second.

Compared with FIPAKTGQDVATQILEGELFDFDL [K8Q], FIPAKTGADVATQILEGELFDFDL [K8A] is higher in protein stability index: 2.1 for the first, 2.13 for the second.

First: FIPAKTGPDVATQILEGELFDFDL [K8P]
Second: FIPAKTGCDVATQILEGELFDFDL [K8C]
The protein stability index of the first is lower: 2.15 for the first, 2.58 for the second.

Compared with FIPAKTGTDVATQILEGELFDFDL [K8T], FIPAKTGIDVATQILEGELFDFDL [K8I] is higher in protein stability index: 1.6 for the first, 1.74 for the second.

Going from FIPAKTGMDVATQILEGELFDFDL [K8M] to FIPAKTGLDVATQILEGELFDFDL [K8L], the protein stability index rises from 1.63 to 2.44.

Going from FIPAKTGNDVATQILEGELFDFDL [K8N] to FIPAKTGSDVATQILEGELFDFDL [K8S], the protein stability index falls from 2.06 to 1.93.

Compared with FIPAKTGHDVATQILEGELFDFDL [K8H], FIPAKTGVDVATQILEGELFDFDL [K8V] is higher in protein stability index: 1.9 for the first, 2.52 for the second.

First: FIPAKTGDDVATQILEGELFDFDL [K8D]
Second: FIPAKTGEDVATQILEGELFDFDL [K8E]
The protein stability index of the first is lower: 2.22 for the first, 2.43 for the second.

First: FIPAKTGFDVATQILEGELFDFDL [K8F]
Second: FIPAKTGRDVATQILEGELFDFDL [K8R]
The protein stability index of the first is lower: 1.32 for the first, 2.37 for the second.

Going from FIPAKTGYDVATQILEGELFDFDL [K8Y] to FIPAKTGGDVATQILEGELFDFDL [K8G], the protein stability index falls from 2.27 to 1.71.

Going from FIPAKTGKDVATQMLEGELFDFDL [I14M] to FIPAKTGKDVATQLLEGELFDFDL [I14L], the protein stability index falls from 2.75 to 2.27.

First: FIPAKTGKDVATQALEGELFDFDL [I14A]
Second: FIPAKTGKDVATQNLEGELFDFDL [I14N]
The protein stability index of the first is higher: 2.07 for the first, 1.57 for the second.

First: FIPAKTGKDVATQCLEGELFDFDL [I14C]
Second: FIPAKTGKDVATQQLEGELFDFDL [I14Q]
The protein stability index of the first is higher: 1.99 for the first, 1.79 for the second.

Compared with FIPAKTGKDVATQRLEGELFDFDL [I14R], FIPAKTGKDVATQGLEGELFDFDL [I14G] is lower in protein stability index: 1.55 for the first, 1.49 for the second.

First: FIPAKTGKDVATQDLEGELFDFDL [I14D]
Second: FIPAKTGKDVATQKLEGELFDFDL [I14K]
The protein stability index of the first is higher: 2.94 for the first, 1.72 for the second.

Compared with FIPAKTGKDVATQHLEGELFDFDL [I14H], FIPAKTGKDVATQELEGELFDFDL [I14E] is higher in protein stability index: 2.05 for the first, 2.09 for the second.

Compared with FIPAKTGKDVATQPLEGELFDFDL [I14P], FIPAKTGKDVATQFLEGELFDFDL [I14F] is lower in protein stability index: 2.21 for the first, 1.74 for the second.

Going from FIPAKTCKDVATQILEGELFDFDL [G7C] to FIPAKTMKDVATQILEGELFDFDL [G7M], the protein stability index falls from 1.79 to 1.43.

First: FIPAKTRKDVATQILEGELFDFDL [G7R]
Second: FIPAKTHKDVATQILEGELFDFDL [G7H]
The protein stability index of the first is lower: 1.82 for the first, 2.08 for the second.

Going from FIPAKTIKDVATQILEGELFDFDL [G7I] to FIPAKTFKDVATQILEGELFDFDL [G7F], the protein stability index falls from 1.96 to 1.45.

First: FIPAKTVKDVATQILEGELFDFDL [G7V]
Second: FIPAKTEKDVATQILEGELFDFDL [G7E]
The protein stability index of the first is higher: 2.2 for the first, 2.08 for the second.

Compared with FIPAKTTKDVATQILEGELFDFDL [G7T], FIPAKTQKDVATQILEGELFDFDL [G7Q] is higher in protein stability index: 1.77 for the first, 1.97 for the second.

Going from FIPAKTSKDVATQILEGELFDFDL [G7S] to FIPAKTDKDVATQILEGELFDFDL [G7D], the protein stability index rises from 2.08 to 2.46.

First: FIPAKTPKDVATQILEGELFDFDL [G7P]
Second: FIPAKTKKDVATQILEGELFDFDL [G7K]
The protein stability index of the first is higher: 2.82 for the first, 2.03 for the second.

Going from FIPAKTAKDVATQILEGELFDFDL [G7A] to FIPAKTYKDVATQILEGELFDFDL [G7Y], the protein stability index rises from 1.83 to 1.88.

Going from FIPAKTWKDVATQILEGELFDFDL [G7W] to FIPAKTNKDVATQILEGELFDFDL [G7N], the protein stability index falls from 2.83 to 1.85.

Going from FIPAKTLKDVATQILEGELFDFDL [G7L] to FIPAKTGKDEATQILEGELFDFDL [V10E], the protein stability index rises from 2.12 to 2.52.

First: FIPAKTGKDTATQILEGELFDFDL [V10T]
Second: FIPAKTGKDQATQILEGELFDFDL [V10Q]
The protein stability index of the first is higher: 2.08 for the first, 1.82 for the second.

First: FIPAKTGKDIATQILEGELFDFDL [V10I]
Second: FIPAKTGKDWATQILEGELFDFDL [V10W]
The protein stability index of the first is higher: 2.95 for the first, 2.75 for the second.

Compared with FIPAKTGKDDATQILEGELFDFDL [V10D], FIPAKTGKDNATQILEGELFDFDL [V10N] is lower in protein stability index: 2.28 for the first, 2.12 for the second.

First: FIPAKTGKDYATQILEGELFDFDL [V10Y]
Second: FIPAKTGKDMATQILEGELFDFDL [V10M]
The protein stability index of the first is higher: 1.99 for the first, 1.58 for the second.

First: FIPAKTGKDRATQILEGELFDFDL [V10R]
Second: FIPAKTGKDKATQILEGELFDFDL [V10K]
The protein stability index of the first is higher: 1.58 for the first, 1.54 for the second.

Going from FIPAKTGKDHATQILEGELFDFDL [V10H] to FIPAKTGKDCATQILEGELFDFDL [V10C], the protein stability index falls from 1.82 to 1.67.

Compared with FIPAKTGKDAATQILEGELFDFDL [V10A], FIPAKTGKDFATQILEGELFDFDL [V10F] is higher in protein stability index: 1.84 for the first, 1.9 for the second.

Compared with FIPAKTGKDSATQILEGELFDFDL [V10S], FIPAKTGKDLATQILEGELFDFDL [V10L] is higher in protein stability index: 1.29 for the first, 2.63 for the second.

First: FIPAKTGKDPATQILEGELFDFDL [V10P]
Second: FIPAKTGKDGATQILEGELFDFDL [V10G]
The protein stability index of the first is lower: 1.61 for the first, 1.98 for the second.
